The results in this text go back to patent publication US20240336907A1, “NOVEL ENDO-ß-N-ACETYLGLUCOSAMINIDASE” (priority 2020, published 2024).

In series [1] the test system is trastuzumab (mAb1) N297-linked sugar chain. Put plainly: Hydrolysis activity on antibody sugar chain (sugar chain hydrolysis rate, fully automated electrophoresis). In kind it is biochemical. To be noted: 0.5 hours after initiation of the reaction; 0.1 mg mAb1, 10 ng enzyme, 37° C., pH 7.5. As to the method: The enzyme obtained in Example 2 was measured for hydrolysis activity by the following method. At this time, EndoS was used as a comparative subject.
In sterile water (5 mL), mAb1 (60 mg) was dissolved. The solution was replaced with 50 mM Tris-HCl buffer (pH 7.5) while concentrating the solution by Vivaspin 20 (30,000 MWCO, PES, manufactured by Sartorius).
A reaction solution containing the mAb1 (0.1 mg) and 10 ng of the enzyme (total volume 50 μL) was prepared and incubated at 37° C. Each of the reaction solutions at 0.5, 1, and 2 hours after initiation of the reaction was sampled and analyzed for protein by a fully automated electrophoresis system as mentioned above. In the chromatogram obtained, an unreacted product and a hydrolysate are confirmed as discrete peaks. From the peak-area ratio between the unreacted product and the hydrolysate, the hydrolysis rate of a sugar chain was calculated in accordance with the following expression.

The next series deals with IgA. Nature of the series: Substrate specificity in various antibodies (band shift in electrophoresis). To be noted: 10 μg substrate, 1 μg enzyme, 37° C., pH 7.5, two hours. It counts as biochemical, human. How it is done:
(§1) The hydrolysis activities of Endo-Si, EndoS and PNGaseF on various antibodies were measured as follows. A 50 mM Tris-HCl buffer (pH 7.5) solution (50 μL) containing each of various substrates (10 μg), and 1 μg Endo-Si WT was prepared and incubated at 37° C. As the substrate, human IgG1-4, IgA, and IgE (all manufactured by Sigma Aldrich) were used. As the controls, 1 μg of EndoS WT and 500 U PNGase F PRIME (manufactured by N-zyme Scientifics) were used. Two hours after initiation of the reaction, a sample was taken from the reaction solution and analyzed for protein by a fully automated electrophoresis system mentioned above.
(§2) When a sugar chain is hydrolyzed by addition of an enzyme, the band of a protein shifts to the lower molecular weight side compared to when the enzyme was not added.

Another series deals with IgE. The series is described as above. Conditions: 10 μg substrate, 1 μg enzyme, 37° C., pH 7.5, two hours. It counts as biochemical, human. As to the method: as §1, §2
A further series relates to (Fucα1,6)GlcNAc-mAb2. Put plainly: Transglycosylation activity with SGP as donor, in combination with Endo-M N175Q. In kind it is biochemical. Conditions: donor SGP (50 eq.), Endo-M N175Q 2.5 mU, Endo-Si enzyme 10 μg, 23° C., pH 7.5. How it is done: Transglycosylation activity was evaluated as follows. A 50 mM (sodium) phosphate buffer (pH 7.5) solution (17 μL) containing (Fucα1,6)GlcNAc-mAb2 (0.5 mg), SGP (0.485 mg (50 eq.)), Endo-M N175Q (manufactured by Tokyo Kasei Kogyo Co., Ltd.) (2.5 mU) and each of various Endo-Si mutant enzymes (10 μg), was prepared and incubated at 23° C. A sample was taken from each of the reaction solutions at 2, 4, 6, 24, and 48 hours after initiation of the reaction and analyzed for protein by a fully automated electrophoresis system as mentioned above. In the chromatogram obtained, an unreacted product and a transglycosylated molecule, mAb2-(SG)2 are confirmed as discrete peaks. The transglycosylation rates were obtained based on the peak area ratio between the unreacted product and the transglycosylated molecule in accordance with the following expression.
Similarly, transglycosylation rates of individual Endo-Si mutant enzymes at each time period of a reaction were calculated (Table 6).

Series [2] is described as follows: Substrate specificity in various 2-AB labeled sugar chains (HPLC). It counts as biochemical. Conditions: 37° C., 24 hours. As to the method:
The substrate specificity of Endo-Si in various sugar chains were measured as follows. A 50 mM Tris-HCl buffer (pH 7.5) solution (10 μL) containing 5 pmol of each of various sugar chains labeled with 2-AB (manufactured by Agilent Technologies) and 20 μg of Endo-Si WT, was prepared and incubated at 37° C. for 24 hours, and thereafter treated at 95° C. for 5 minutes to terminate the reaction. The reaction solution was subjected to HPLC analysis carried out under the following conditions.
[HPLC Analysis Conditions]
HPLC apparatus: 1200 Infinity LC (manufactured by Agilent Technologies)
Column: ACQUITY UPLC Glycan Amide 130 Å, 1.7 μm, 2.1×150 mm (manufactured by Waters)
Column temperature: 40° C.
Detector: Fluorescence detector RF-20Axs (manufactured by Shimadzu Corporation)
Mobile phase A: H2O+0.1% HCOOH
Mobile phase B: Acetonitrile+0.1% HCOOH
Gradient (mobile phase B %): 90% (0 minute), 40% (25 minutes)
Enzyme activity was calculated based on the peak area ratio between a substrate and a hydrolysate, GlcNAc-2AB. […] Of them, the activity on (specificity to) G0 sugar chain is the highest.

The test system of another series is human IgG1-4. Put plainly: Substrate specificity in various antibodies (band shift in electrophoresis). In kind it is biochemical. To be noted: 10 μg substrate, 1 μg enzyme, 37° C., pH 7.5, two hours. As to the method:
as §1, §2

Series [3] deals with mAb1. Nature of the series: Evaluation of reaction temperature for hydrolysis of mAb1 sugar chain. It counts as biochemical. As to the method:
The hydrolysis rates of a sugar chain with Endo-Si and EndoS at individual temperatures were measured as follows. A 50 mM Tris-HCl buffer (pH 7.5) solution (50 μL) containing 0.1 mg of mAb1 and 10 ng of Endo-Si WT or EndoS WT was prepared and incubated at each temperature of 27, 29, 31, 35, 37, 40, 43, 46, 48, and 50° C. Each of the reaction solutions at a half hour after initiation of a reaction was sampled and the hydrolysis rate of a sugar chain was calculated in accordance with the aforementioned method.

Series [4] has as its system mAb1. Put plainly: Evaluation of reaction pH for hydrolysis of mAb1 sugar chain. It counts as biochemical. How it is done: The hydrolysis rates of a sugar chain with Endo-Si and EndoS at individual pH values were measured as follows. A 50 mM citric acid-sodium phosphate buffer (pH 5.0 or 5.5) solution, sodium phosphate buffer (pH 6.0, 6.5 or 7.0) solution or Tris-HCl buffer (pH 7.5, 8.0, 8.5 or 9.0) solution (50 μL for each) containing 0.1 mg of mAb1, and 10 ng of Endo-Si WT or EndoS WT, was prepared and incubated at 37° C. Each of the reaction solutions at a half hour after initiation of reaction was sampled and the hydrolysis rate of a sugar chain was calculated in accordance with the aforementioned method.

B1: Endo-Si WT: endo-β-N-acetylglucosaminidase derived from Streptococcus iniae, amino acid positions 34 to 928 in SEQ ID NO: 2 (protein, listed as Streptococcus iniae)
chain: REELKMPNGLEQSIADVEAKIDALTYLSKNSKDEFKHSMYEIPSNREHKPVSPKQALQNAKKADAQAERLAKMTIPKKEELKALEGPLYGGYFRTWQDKTSDPTETNKVNSFGELPKEVDLAFVFHDYTKDYSLFWEELATKQVPKLNKQGTRVIRTIPWRFLSGADHSDISADKEKFPNTEAGNKALAKAIVDEYVYKYNLDGLDIDIERDSVPKVNDKEDPEALARTVEVFKEIGKLIGANGADKSRLLIMDTTYTAEENPLIKETAQYLNLLLVQVYGFSGENGNYLHHKNILDETSSMEGRWQGYSKYIRPEQYMVGFSFYEEKDFNNRWKDINEEDPSDPHIGEKIQGTRAERYAKWQPKTGGLKGGLFSYAIDRDGVAQPKQKTEHPELDKIVKSEYKVSKALKKLMMTDDQYQPIDQSDFPDKALRESIIKQVGTRRGDLERFKGTLRLDNPEIKDLTGLNKLKRVAKLELINLPKITKIDKDDLPQNLKPLTDNQKSNLEIKGTYDDSKLYKDIPAFDLVISGLSGLESLDISGHQRDTLSGIDASTLPSLKAINISDNHFDLAQGTENRHILDTILATLAKNGASTASFDKQKPKGLYPESYSTAPLHLQVGQGKINVIDDLIFGTRTNQNTLINTENDFEAYKEQTIQGKPFIAPDYLYDNFKVSYKEYSASIVDSTLAETTDKTIDTAKAETYQVTVSNKDGKTVHSVKVIVGDEKPMMVNLAQDAKIIGTDNMTQSAKVFDGQKDQFLLSWNKDSSVIFELKTPGTAKHWRFFDDGKNDSVTLSVFKGDASNFETEKDKAENWVEITKDSRKNDDKVFSSPLEVDNAKYLKVTIKKEAKYIYFNELQILGYPGVVAKKTADDLRPTEADKSDDKSDKNDTEAK
As for B1, in series [1], the “hydrolysis rate of a sugar chain” value was determined as 57.4%. Further, the “hydrolysis activity on IgA” value in the series on IgA is reported as “no hydrolysis activity”. Moreover, in the series on IgE, the “hydrolysis activity on IgE” value is reported as “no hydrolysis activity”. Also, the Transglycosylation rate with (Fucα1,6)GlcNAc-mAb2 (2 h) is 1.2%; in the series on (Fucα1,6)GlcNAc-mAb2 (4 h), 1.1%; in the series on (Fucα1,6)GlcNAc-mAb2 (6 h), 0.0%; with (Fucα1,6)GlcNAc-mAb2 (24 h), 0.0%; in the series with (Fucα1,6)GlcNAc-mAb2 (48 h), 0.0%. Further, the Relative activity is given as 100% in series [2] (substrate 2-AB G0 (agafacto biantennary), reference regarded as 100%); 73.2% in series [2] (substrate 2-AB G2 (asfato biantennary), activity against G0 sugar chain regarded as 100%); 50.1% in series [2] (substrate 2-AB G2F (core-fucosylated biantennary), activity against G0 sugar chain regarded as 100%); 17.1% in series [2] (substrate 2-AB G2S2 (a2,6) (sialyl biantennary), activity against G0 sugar chain regarded as 100%); “Not detected” in series [2] (substrate 2-AB G3 (triantennary), activity against G0 sugar chain regarded as 100%); 7.2% in series [2] (substrate 2-AB Man3, activity against G0 sugar chain regarded as 100%). Also, the Relative activity in series [2] (substrate 2-AB Man 5, activity against G0 sugar chain regarded as 100%) stood at 1.9%; in series [2] (substrate 2-AB Man6, activity against G0 sugar chain regarded as 100%), 6.6%; in series [2] (substrate 2-AB Man8, activity against G0 sugar chain regarded as 100%), 5.2%; in series [2] (substrate 2-AB Man9, activity against G0 sugar chain regarded as 100%), 3.3%. The “hydrolysis activity on the 4 subclasses of IgG” value in the series on human IgG1-4 is listed as “exhibited hydrolysis activity”. Moreover, the “hydrolysis activity compared with EndoS” value in the series with mAb1 [3] (at individual temperatures 27 to 50° C.) is reported as “higher hydrolysis activity than EndoS”; with mAb1 [4] (at around pH 6.7 or more) it was “higher than that of EndoS”. In addition, the “optimum reaction temperature for hydrolysis: particularly around” value in the series with mAb1 [3] (mAb1, pH 7.5, half hour reaction, particularly around (35° C. to 39° C.)) is “around 37 °C”. In addition, the “optimum pH for hydrolysis: particularly around” value in the series on mAb1 [4] (mAb1, 37° C., half hour reaction, particularly around (pH 7.2 to 8.0)) is recorded as ~7.5 pH.
